Publication PMC9328677

B1: truncated APLF^AD construct corresponding to residues 449 to 490 (APLF^AD-Δ) [Homo sapiens] / stoichiometric mixture of full-length Drosophila melanogaster -H2B and H3-H4 (octamer-mix) [Drosophila … (parent)
chain 1: GLDEDNDNVGQPNEYDLNDSFLDDEEEDYEPTDEDSDWEPGKE
chain 2: not shown
chain 3: not shown
chain 4: not shown
chain 5: not shown

Variants of: B1
Experiment: ITC
Conditions: with stoichiometric mixture of full-length Drosophila melanogaster H2A-H2B and H3-H4 (octamer-mix) [Drosophila melanogaster]

For chain 1 Y15A F21A Y29A W38A, which Kd is on record?
Its Kd is 1220 nM.
